Measured values taken from patent publication US20240117043A1 (SHANGHAI JUNSHI BIOSCIENCES, published 2024).

T1: recombinant human HX1 hCD112R Fc (human, UniProt Q6DKI7 41-171, limits assumed)
T1 construct: Coated antigen of the ELISA (Suzhou Junmeng); also called human CD112R; not shown: Fc part
T1 sequence (looked up): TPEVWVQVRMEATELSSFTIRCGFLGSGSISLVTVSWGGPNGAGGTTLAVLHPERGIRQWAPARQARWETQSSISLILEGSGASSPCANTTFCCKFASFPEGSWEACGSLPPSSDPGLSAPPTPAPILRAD

T2: recombinant human TIGIT (His Tag) (human, UniProt Q495A1 22-141)
T2 construct: Coated antigen of the ELISA; not shown: His tag
T2 sequence (looked up): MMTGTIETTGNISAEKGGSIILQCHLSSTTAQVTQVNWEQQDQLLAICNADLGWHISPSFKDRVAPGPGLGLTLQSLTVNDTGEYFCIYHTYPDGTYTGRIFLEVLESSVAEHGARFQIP

T3: human TIGIT on the surface of Jurkat-hTIGIT cells (human, UniProt Q495A1 22-244)
T3 construct: whole, on cells; also called human TIGIT on the surface of Jurkat cells
T3 sequence (looked up): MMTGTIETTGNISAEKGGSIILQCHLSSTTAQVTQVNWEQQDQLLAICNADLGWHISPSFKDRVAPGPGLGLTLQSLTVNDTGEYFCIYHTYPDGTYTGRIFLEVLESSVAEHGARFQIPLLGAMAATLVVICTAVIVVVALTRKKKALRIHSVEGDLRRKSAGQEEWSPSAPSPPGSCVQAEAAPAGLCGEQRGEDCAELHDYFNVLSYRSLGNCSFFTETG

T4: human CD112R-mFc protein (human, UniProt Q6DKI7 41-171, limits assumed)
T4 construct: also called human CD112R protein; not shown: mouse Fc (mFc)
T4 sequence (looked up): T1 sequence (looked up)

B1: bispecific antibody JS-3 (IgG4) (bispecific antibody)
chain 1: not shown
chain 2: DIVMTQSPDSLAVSLGERATINCKASQSVSNDVAWYQQKPGQPPKLLIYYVSHRFTGVPDRFSGSGSGTDFTLTISSLQAEDVAVYFCHQAYRSPWTFGQGTKLEIKRTVAAPSVFIFPPSDEQLKSGTASVVCLLNNFYPREAKVQWKVDNALQSGNSQESVTEQDSKDSTYSLSSTLTLSKADYEKHKVYACEVTHQGLSSPVTKSFNRGECSGGGSGGGSEGGGSEGGGSEGGGSEGGGSGGGSGEVQLVESGGGLVKPGGSLRLSCAASGFTFSSYHMSWVRQAPGKGLELVSAINSNGINTYYLDTVKGRFTISRDNAKNSLYLQMNSLRAEDTAVYYCARHEDYYGFAMDYWGQGTLVTVSSASTKGPSVFPLAPCSRSTSESTAALGCLVKDYFPEPVTVSWNSGALTSGVHTFPAVLQSSGLYSLSSVVTVPSSSLGTKTYTCNVDHKPSNTKVDKRVESKYGPPCPPCPAPEFLGGPSVFLFPPKPKDTLMISRTPEVTCVVVDVSQEDPEVQFNWYVDGVEVHNAKTKPREEQFNSTYRVVSVLTVLHQDWLNGKEYKCKVSNKGLPSSIEKTISKAKGQPREPQVCTLPPSQEEMTKNQVSLSCAVKGFYPSDIAVEWESNGQPENNYKTTPPVLDSDGSFFLVSRLTVDKSRWQEGNVFSCSVMHEALHNRFTQKSLSLSLGK
notes: Two-chain scFab/scFab knob-into-hole format, IgG4 Fc
B2: bispecific antibody JS-1 (IgG4) (bispecific antibody)
heavy: QVQLVQSGAEVKKPGASVKVSCKTSGYAFTEYTMHWVRQAPGKGLEWMGGINPNTGGTTYNQKFQGRVTLTVDKSSSTAYMELSSLRSEDTVVYYCAKLLRLMYYFDYWGQGTLVTVSSASTKGPSVFPLAPCSRSTSESTAALGCLVKDYFPEPVTVSWNSGALTSGVHTFPAVLQSSGLYSLSSVVTVPSSSLGTKTYTCNVDHKPSNTKVDKRVESKYGPPCPPCPAPEFLGGPSVFLFPPKPKDTLMISRTPEVTCVVVDVSQEDPEVQFNWYVDGVEVHNAKTKPREEQFNSTYRVVSVLTVLHQDWLNGKEYKCKVSNKGLPSSIEKTISKAKGQPREPQVYTLPPCQEEMTKNQVSLWCLVKGFYPSDIAVEWESNGQPENNYKTTPPVLDSDGSFFLYSRLTVDKSRWQEGNVFSCSVMHEALHNHYTQKSLSLSLGK
light: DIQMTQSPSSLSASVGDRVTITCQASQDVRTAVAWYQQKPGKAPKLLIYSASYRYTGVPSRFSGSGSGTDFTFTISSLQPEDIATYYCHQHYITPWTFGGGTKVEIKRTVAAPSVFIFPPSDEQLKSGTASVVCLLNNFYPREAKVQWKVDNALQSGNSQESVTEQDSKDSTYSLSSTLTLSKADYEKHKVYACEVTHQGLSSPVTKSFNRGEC
chain: DIVMTQSPDSLAVSLGERATINCKASQSVSNDVAWYQQKPGQPPKLLIYYVSHRFTGVPDRFSGSGSGTDFTLTISSLQAEDVAVYFCHQAYRSPWTFGCGTKLEIKGGGGSGGGGSGGGGSGGGGSEVQLVESGGGLVKPGGSLRLSCAASGFTFSSYHMSWVRQAPGKCLELVSAINSNGINTYYLDTVKGRFTISRDNAKNSLYLQMNSLRAEDTAVYYCARHEDYYGFAMDYWGQGTLVTVSSGGGGSGGGGSESKYGPPCPPCPAPEFLGGPSVFLFPPKPKDTLMISRTPEVTCVVVDVSQEDPEVQFNWYVDGVEVHNAKTKPREEQFNSTYRVVSVLTVLHQDWLNGKEYKCKVSNKGLPSSIEKTISKAKGQPREPQVCTLPPSQEEMTKNQVSLSCAVKGFYPSDIAVEWESNGQPENNYKTTPPVLDSDGSFFLVSRLTVDKSRWQEGNVFSCSVMHEALHNRFTQKSLSLSLGK
notes: Three-chain knob-into-hole format: anti-TIGIT Fab arm and anti-CD112R scFv arm, IgG4 Fc

Columns and labels:
[1] = molecular target: T1, recombinant human HX1 hCD112R Fc; experiment: ELISA, relative binding activity, sample kept at 40 C for 2 weeks
Protocol: (§1) The antibody samples were exchanged into a pH 5.5 buffer system (20 mM histidine-histidine hydrochloride buffer, 230 mM trehalose) with the concentration of the samples controlled at about 5 mg/mL, and the buffer was aliquoted into vials at 500 μL/vial. The vials were placed in a 40° C. incubator to test stability at 0 W, 2 W and 4 W. Samples were sent for analysis according to Table 2. Stability was assessed by the following parameters: (a) the content of antibody monomers, aggregates or fragments determined by SEC-HPLC (size exclusion chromatography); (b) the molecular weight of the antibody determined by CE-SDS (sodium dodecyl sulfate capillary electrophoresis); and (c) the bioactivity of the antibody determined by an ELISA or reporter gene assay.

[2] = molecular target: T2, recombinant human TIGIT (His Tag); experiment: as above
Protocol: as §1

[3] = molecular target: T3, human TIGIT on the surface of …; experiment: flow cytometry, blocking of 1 ug/mL PVR-mFc binding to Jurkat-hTIGIT cells
Protocol: Jurkat-hTIGIT cells (human T lymphocytes, human TIGIT positive) were incubated with different concentrations of the bispecific antibodies JS-1, JS-3, JS-5 and JS-9 and 1 μg/mL human PVR-mFc protein at 4° C. for 30 min, then washed and incubated with a fluorescence-labeled anti-mouse IgG secondary antibody (1:200) in a dark place at 4° C. for 30 min. Finally, the cells were collected using a flow cytometer (BD Canto II), and the fluorescent antibodies bound to the cell surface were detected. Raw data were analyzed using FlowJo to obtain MFI values, antibody dose-dependent binding curves (FIG. 4) were fitted using GraphPad, and IC50 was calculated. The positive controls were hu20 (a recombinant humanized anti-TIGIT monoclonal antibody) and JS-Ref (Hengrui) (an anti-TIGIT/CD112R bispecific antibody of Hengrui, expressed and purified according to the sequence of the patent WO2021180205), and the negative control was an anti-KLH-hIgG4 antibody.

[4] = molecular target: T2, recombinant human TIGIT (His Tag); experiment: ELISA, plate coated with recombinant human TIGIT (His Tag), detection with HRP anti-human IgG4 Fc; unit taken from the concentration axis [2a]
Protocol: 2. Procedures [0241] a. A 96-well plate was coated with 1.5 μg/mL recombinant human TIGIT (His Tag) (Suzhou Junmeng) as the antigen at 100 μL/well and incubated at 37° C. for 1.5 h. [0242] b. The plate was washed 4 times with 300 μL/well 1×PBST, and 2% BSA was added at 200 μL/well. The plate was blocked at 37° C. for 1.5 h. [0243] c. The plate was washed 4 times with 300 μL/well 1×PBST, and serial dilutions of the bispecific antibodies JS-1,3,5,9 and a negative control: antibody (anti-KLH hIgG4) (initial concentration 1.0 μg/mL, 3-fold serially diluted to 12 concentration points, 100 μL/well) were added. The plate was incubated at 37° C. for 1 h. [0244] d. The plate was washed 4 times with 300 μL/well 1×PBST. [0245] e. 5000-fold diluted horseradish peroxidase (HRP)-conjugated mouse anti-human IgG4 Fc antibody (Southern Biotech, 9200-05) was added at 100 μL/well, and the plate was incubated at 37° C. for 1 h. […] The plate was washed 4 times with 300 μL/well 1×PBST. [0247] g. 0.1 mg/mL TMB was added at 100 μL/well, and after the plate was incubated at 37° C. for 15 min, a 2 M solution of hydrochloric acid was added at 100 μL/well to stop the reactions. [0248] h. The absorbance was measured at 450 nm/620 nm on a microplate reader, and data were analyzed using Graphpad Prism7.

human CD112R-mFc protein = molecular target: T4, human CD112R-mFc protein; experiment: flow cytometry, blocking of 1 ug/mL CD112R-mFc binding to CHO hCD112 cells
Protocol: CHO hCD112 cells (Chinese hamster ovary cells, human CD112 positive) were incubated with different concentrations of the bispecific antibodies JS-1, JS-3, JS-5 and JS-9 and 1 μg/mL human CD112R-mFc protein at 4° C. for 30 min, then washed twice and incubated with a fluorescence-labeled anti-mouse IgG secondary antibody (1:200) in a dark place at 4° C. for 30 min. Finally, the cells were collected using a flow cytometer (BD Canto II), and the fluorescent antibodies bound to the cell surface were detected. Raw data were analyzed using FlowJo to obtain MFI values, antibody dose-dependent binding curves (FIG. 4) were fitted using GraphPad, and IC50 was calculated. The positive controls were hu52 (a recombinant humanized anti-CD112R monoclonal antibody) and JS-Ref (Hengrui) (an anti-TIGIT/CD112R bispecific antibody of Hengrui, expressed and purified according to the sequence of the patent WO2021180205), and the negative control was an anti-KLH-hIgG1 antibody.

[5] = molecular target: T1, recombinant human HX1 hCD112R Fc; experiment: ELISA, relative binding activity, sample kept at 40 C for 0 weeks
Protocol: as §1

[6] = molecular target: T2, recombinant human TIGIT (His Tag); experiment: as above
Protocol: as §1

| Binder | CD112R binding activity Elisa (%) [1] [%] | TIGIT binding activity Elisa (%) [2] [%] | IC50 [3] [nM] | EC50 [4] [µg/mL] | IC50 (human CD112R-mFc protein) [nM] | CD112R binding activity Elisa (%) [5] [%] | TIGIT binding activity Elisa (%) [6] [%] |
| --- | --- | --- | --- | --- | --- | --- | --- |
| B1 | 98 | 88 | 6.78 | 0.106 | 0.696 | 102 | 111 |
| B2 | 87 | 75 | 5.42 | 0.0858 | 0.915 | 101 | 100 |
